Laboratory results published in the nanobody polyreactivity screen of Harvey et al. (2022).

experiment: yeast display, Sf9 membrane polyspecificity reagent, FACS + sequencing; frameworks hold sequencing errors
How it was run: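 A nanobody's polyreactivity label depends on the gate it was sorted from. Yeast display cells were stained with 10% biotinylated, detergent-solubilized Sf9 membrane reagent for 1 hour at 4 °C, enriched on streptavidin microbeads and sorted by FACS. The low and high (top ~1%) gates were set on anti-HA fluorescence for expression and streptavidin fluorescence for reagent binding.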

Sequence	polyreactivity (PSR sort gate)
QVQLVESGGGLVQAGGSLRLSCAASGSTFERYAMGWYRQAPGKERELVAAITWGGGSTNYADSVKGRFTISRDNAKNTVYLQMNSLKPEDTAVYYCAREWRTRIYYYWGQGTQVTVSS	low polyreactivity
QVQLEESGGGLVQAGGSLRLSCAASGRIFRSYAMGWYRQAPGKERELVAAISQRGGRTYYADSVKGRFTISRDNAKNTVYLQMNSLKPEDTAVYYCAKSNPKLGYYYLQGDLYDYWGQGTQVTVSS	low polyreactivity
QVQLVESGGGLVQAGGSLRLSCAASGYTFNDYAMGWYRQARGKERELVASISSGGSTYYADSVKGRFTISRDNAKNTVYLQMNSLKPEDTAVYYCAAEWHYIYAYDYWGQGTQVTVSS	low polyreactivity
QVQLVESGGGLVQAGGSLRLSCAASGRTFRYNAMGWYRQAPGKERELVAAITWSGGSTYYADSVKGRFTISRDNAKNTVYLQMNSLKPEDTAVYYCAKGRRRSHPYDYWGQGTQVTVSS	high polyreactivity
QVQLVESGGGLVQAGGSLRLTCAASGRTFRLYVMGWYRQAPGKERELVASISYGGGRTYYADSVKGRFTISRDNAKNTVYLQMNSLKPEDTAVYYCAARYYTYRLDMDYWGQGTQVTVSS	high polyreactivity
KVQLVESGGGLVQAGGSLRLSCAASGRTFGDYAMGWSRQAPGKEREWVARISWDGGSTYYADSVKGRFTISRDNAKNTVYLQMNSLKPEDTAGYYCYSKSDYWGQGTQVTVSS	low polyreactivity
QVQLVESGGGLVQAGGSLRLSCAASGRTFDLYAMGWYRQAPGKERELVAAISGRGGRTYYADSVKGRFTISRDNAKNTVYLQMNSLKPEDTAVYYCAARTGATSRIRFDYWGQGTQVTVSS	low polyreactivity
QGQLVDSGGGVVQAGGSLRLSCAASGRTFPVYAMGWYRQAPGKERELVAAISSRGGSTYYADSVKGRFTISRDNAKNTVYLQMNSLKPEDTAVYYCAARMPGPRRFTMDYWGQGTQVTVSS	high polyreactivity
QVQLVESGGGLVQAGGSLRLSCAASGSTFVGYAMGWYRQAPGKERELVAAITSRGGRTYYADSVKGRFTISRDNAKNTVYLQMNSLKPEDTAVYYCNAKRPRIGVTRYDYWGQGTQVTVSS	high polyreactivity
QVQLVESGGGLVQAGGSLRLSGAASGSIFDIYAMGWYRPAPGKERELVADITISGGSTYYADSVKVRFTISRDNAKNTVYLQMNSLIPEDTAVYYCAADVTVVLGYKYDYWGQGTQVTVSS	low polyreactivity
QVQLVDSGGGLVQAGGSRRLSCADSGSIFGDYDMGWYRQAHGKERELVATIRYSGGTTYYADSVKGRFTISRDNAKNTVYLQLISLKPEDTAVYYCNARVWLFWTSELDSWGQGTQVTVSS	low polyreactivity
QVQLVESAGGLVQAGGSLRLSCAASGRTLRGYAMGWYRQAPGKERELVAAITWSGGSTYYADSVKGRFTISRDNAKNTVYLQMNSLKPEDTAVYYCNARSYPDLYDYWGQGTQVTVSS	high polyreactivity
QVQLVESGGGLVQAGGTLRLSCAASGRIFRVYAMGWYRQAPGKERELVATITRGGSTYADSVKGRFTISRDNAKNTVYLQMNSLKPEDTAVYYCAADLVLGYRYDYWGQVTQVTVSS	high polyreactivity
QVQLVESGGGLVQAGGSLRLICAASGYIFRYYVMGWYRQAPGKERELVAAITGIDGSTYYADSVKGRFTISRDNAKNTVYLQMNSLKPEDTAVYYCAAVIGDSSYTFYYDMDYWGQGTQVTVSS	low polyreactivity
QVQLVESGGGLVQAGGSLRLSCAASGFIFVYNAMGWYRPAPGKERELVAAINGSGDSTYYADSVKGRFTISRDNAKNTVYLQMNSLKPEDTAVYYCAARYKVPLSRYILVLYDYWGQGTQVTVSS	low polyreactivity
QVQLVESGGGLVQTGGSLRLSCAASGSTFYYYAMGWYRQAPGKERELVAGISWGGGSTYYADSVKGRFTISRDNAKNTVYLQMNSLKPEDTAVYYCNALNPNSYDYWGQGTLVTVSS	low polyreactivity
QVQLVESGGGLVQAGGSLRLSCAASVSIFDSYAMAWYRQAPGKERELVAAISKRGGSTYYADSVKGRFTISRDTAKNTVYLQMNCLKPEDTAVYFCAAVYSQARSKAVYSEYYYWGLGTQVTVSS	high polyreactivity
QVQLVESGGGLVQAGGSLRLSCAPSGGTFYSYAMGWYRQAPGKESELVAAISRRGASTYYADSVKGRFTISRDNAKNNVYLQMNSLKPEDTAGYYCAAKGRSYGVTRMYYWGQGTQVTVSS	high polyreactivity
QVQLVESGGGLVQAGGSLRLSCAPSGRTIGRNAMGWSRQAPGKERELVAAISASGSRTYYAESVKGRFTISRDNAMNTVYLQMNSLKPVDTAVYYCNAVYRTLYYRFYYWGQGTQVTVSS	high polyreactivity
QVQLVESGGGLVQAGRSLRLSCAASVSIFAGYAMGWYRQAPGKERELVAGISYSGGRTYYADSVKGRFTISRDNAKNTVYLQMNSLKPEDTAVYYCNARFVRVRKGYGYWGLGTQVTVSS	high polyreactivity
QVQLVESGGGLVQAGGSLRLSCAASGSTFELYAMGWYRQAPGKERELVASITGDSTNYADSVKGRFTISRDNAKNTVYLQMNSLKPEDTAVYYCAKPYYDGRTHFDSWGQGTQVTVSS	low polyreactivity
QVQLVESGGGLVQAGGRLRLSCAASGNIFYYYAMGWYRQAPGKERELVADIRSSGRTNYADSVKGRFTISRDNATNTVYLQMNSLKPADTAVYYCATDKWYSYADKYDYWGQGTQVTVSS	low polyreactivity
QVQLEESGGGLFQAGGSLRLRCAASGSIFHINAMGWYRQAPGKERELVADISHRGGSTYYADSVKGRFTISRDNAKNTVYLQMNSLKPEDTAVYYCAVVHVFYAVYYFSFYTYDYWGQGTQVTVSS	low polyreactivity
QVQLVESGGGLVQAGGSLRLSCAASGITFTRYTKGWYRQAPGKERELVAAIRGSGGSTYYADSVKGRFTISRDNAKNTVYLEMNSLKAEDTAVYFCAADKYLYGRLTRNFHYYYWGLGTQVTVSS	low polyreactivity
QVQHVESGGALVQAGGSLRLSCAASGFTFTRNTMGWYRQAPGKERELVAAITRGGSTNYADSVKGRFTISRDNAKNTVYLQMNSLKPEDTAVYYCNKGRNVVLVRTADDYWGQGTQVTVSS	low polyreactivity
QVQLVESGGGLVQAGGSLRLSCAASGSNFASYSMGWYRQSPGKERELVAAITDSGGSTYYADSVKGRLTSSRENGKNTVYLQMNSLKPEDTAVYYCAAYGPYFSYHDYVYWGQGTQVTVSS	low polyreactivity
QVQLVESGGGLVQAGGSLRLSCAASGRTFYINAMGWYRQAPGKERELVATISRSGGDTYYADSVKGRFTISRDNAKNTVYLQMNSLKPEDTAVYYCYARQYYYRSGAYASRYLYNYWGQGTQVTVSS	high polyreactivity
QVQLVESGGGLVQAGGSLRLSCAASGLTFSIYAMGWYRQAPGKERELVAGISQSGGSTYADSVKGRFTISRDNAKNTVYLQMNSLKPADTAVYYCAKEFEWVGSPSTVDGLDYWGHGTQVTVSS	low polyreactivity
QVQLVESGGGLVQAGGSLRLSCAASGFTFYHYAMGWSRQAPGKESELVATISKRGGSTYYADSVKGRFTISRDNAKNTVYLQMNSLKPQDTAVFYCAAKIYWSSLKMDYWGQGTQVTVSS	high polyreactivity
QVQLVESGGGLVQAGGSLRLSCAASGRIFYRYAMGWYRQAPGKERELVATMSWSGGSTYYADSVKGRFTISRDNAKNTVYVQMNSLKPEDTAVYYCNAAYGYVSRVYYLIEHDYWGQGTQVTVSS	high polyreactivity
